# Measurements reported in patent US20240317834A1, “COMPOSITIONS AND METHODS FOR NEUROLOGICAL DISEASES” (CODA BIOTHERAPEUTICS, INC., priority 2020, published 2024).
# Substitutions are numbered along the chain they refer to. Numbers in names are those of the source.
# B1: CODA1054: engineered chimeric LGIC receptor, R101M, L131F in SEQ ID NO: 33 (protein)
# chain: MRCSPGGVWLALAASLLHVSLQGEFQRKLYKELVKNYNPLERPVANDSQPLTVYFSLSLLQIMDVDEKNQVLTTNIWLQMSWTDHYLQWNVSEYPGVKTVMFPDGQIWKPDILLYNSADERFDATFHTNVFVNSSGHCQYLPPGIFKSSCPMDLKNFPMDVQTCKLKFGSWSYGGWSLDLQMQEADISGYIPNGEWDLVGIPGKRSERFYECCKEPYPDVTFTVTMRRRMGYYLIQMYIPSLLIVILSWISFWINMDAAPARVGLGITTVLTMTTQSSGSRASLPKVSYVKAIDIWMAVCLLFVFSALLEYAAVNFVSRQHKELLRFRRKRRHHKSPMLNLFQEDEAGEGRFNFSAYGMGPACLQAKDGISVKGANNSNTTNPPPAPSKSPEEMRKLFIQRAKKIDKISRIGFPMAFLIFNMFYWIIYKIVRREDVHNQ
# modifications: synthetic sequence of chimeric LGIC
# B2: CODA1055: engineered chimeric LGIC receptor, R101W, Y115E, Y210W in SEQ ID NO: 33 (protein)
# chain: B1 chain with M101W, Y115E, F131L, Y210W
# modifications: synthetic sequence of chimeric LGIC
# Columns and labels:
# rat DRG neurons = assay: Rheobase shift and evoked action potentials in rat DRG neurons (current clamp); type: cell-based; conditions: for Rheobase Shift; Rat DRG Neurons, Baseline: no ligand
# Method in brief: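 Rat DRG neurons expressing engineered receptors, whole-cell current clamp at RT. ECS at pH 7.3; K-gluconate internal at pH 7.2. 500 ms steps from −200 to 700 pA with and without ligand. Rheobase taken as the smallest depolarising step that fires an action potential; input resistance from negative steps.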
# Lenti-X 293T cells = assay: YFP fluorescence quenching anion reporter plate reader assay of engineered receptors stimulated with acetylcholine or a non-native ligand; type: cell-based; conditions: for percent quench of YFP fluorescence, 30 nM TC-6683: TC-6683 30 nM; for percent quench of YFP fluorescence, 300 nM TC-6683: TC-6683 300 nM; for percent quench of YFP fluorescence, 3 uM TC-6683: TC-6683 3 uM; for percent quench of YFP fluorescence, 30 uM TC-6683: TC-6683 30 uM; for percent quench of YFP fluorescence, 100 uM TC-6683: TC-6683 100 uM; for percent quench of YFP fluorescence, 100 uM ach: acetylcholine 100 uM; for percent quench of YFP fluorescence, 300 uM ach: acetylcholine 300 uM; for percent quench of YFP fluorescence, 500 uM ach: acetylcholine 500 uM; for percent quench of YFP fluorescence, 1 mM ach: acetylcholine 1 mM; for percent quench of YFP fluorescence, 3 mM ach: acetylcholine 3 mM; for percent quench of YFP fluorescence, 10 mM ach: acetylcholine 10 mM
# Method in brief: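 YFP quench was followed for about 1 min 43 s after ligand delivered in iodide-based ECS, pH 7.2. Values are end-of-read fluorescence (last 10 s) divided by the pre-ligand baseline (15 s). Cells were LX293T, transfected with receptor DNA a day before the assay.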
molecule,measurement,setting,value
B1,"Rheobase Shift; Rat DRG Neurons, +TC-5619 @ EC90",rat DRG neurons,673 ± 27 pA
same,"Rheobase Shift; Rat DRG Neurons, Baseline",rat DRG neurons,105 ± 13 pA
same,YFP fluorescence quenching using CNL001,"Lenti-X 293T cells; 1 nM CNL001, first column",21.932%
same,YFP fluorescence quenching using CNL001,"Lenti-X 293T cells; 1 nM CNL001, second column",39.689%
same,YFP fluorescence quenching using TC-5619/Bradanicline,Lenti-X 293T cells; 1 nM brd,6.609%
same,YFP fluorescence quenching using TC-5619/Bradanicline,Lenti-X 293T cells; 3 nM brd,−7.635%
same,YFP fluorescence quenching using Varenicline,"Lenti-X 293T cells; 3 nM var, first column",34.923
same,YFP fluorescence quenching using Varenicline,"Lenti-X 293T cells; 3 nM var, second column",28.944
same,YFP fluorescence quenching using CNL001,"Lenti-X 293T cells; 10 nM CNL001, first column",54.192%
same,YFP fluorescence quenching using CNL001,"Lenti-X 293T cells; 10 nM CNL001, second column",64.111%
same,YFP fluorescence quenching using TC-5619/Bradanicline,Lenti-X 293T cells; 10 nM brd,4.459%
same,YFP fluorescence quenching using TC-5619/Bradanicline,Lenti-X 293T cells; 30 nM brd,69.782%
same,YFP fluorescence quenching using Varenicline,"Lenti-X 293T cells; 30 nM var, first column",42.214
same,YFP fluorescence quenching using Varenicline,"Lenti-X 293T cells; 30 nM var, second column",43.015
same,YFP fluorescence quenching using CNL001,"Lenti-X 293T cells; 50 nM CNL001, first column",71.409%
same,YFP fluorescence quenching using CNL001,"Lenti-X 293T cells; 50 nM CNL001, second column",70.989%
same,YFP fluorescence quenching using ABT-126,Lenti-X 293T cells; 50 nM abt,−19.54%
same,YFP fluorescence quenching using CNL001,"Lenti-X 293T cells; 100 nM CNL001, first column",74.148%
same,YFP fluorescence quenching using CNL001,"Lenti-X 293T cells; 100 nM CNL001, second column",71.722%
same,YFP fluorescence quenching using ABT-126,Lenti-X 293T cells; 100 nM abt,−18.28%
same,YFP fluorescence quenching using TC-5619/Bradanicline,Lenti-X 293T cells; 100 nM brd,77.633%
same,YFP fluorescence quenching using ABT-126,Lenti-X 293T cells; 300 nM abt,−16.87%
same,YFP fluorescence quenching using TC-5619/Bradanicline,Lenti-X 293T cells; 300 nM brd,72.933%
same,YFP fluorescence quenching using Varenicline,"Lenti-X 293T cells; 300 nM var, first column",47.059
same,YFP fluorescence quenching using Varenicline,"Lenti-X 293T cells; 300 nM var, second column",52.768
same,YFP fluorescence quenching using Varenicline,"Lenti-X 293T cells; 500 nM var, first column",59.542
same,YFP fluorescence quenching using Varenicline,"Lenti-X 293T cells; 500 nM var, second column",62.641
same,YFP fluorescence quenching using CNL001,"Lenti-X 293T cells; 1 uM CNL001, first column",71.378%
same,YFP fluorescence quenching using CNL001,"Lenti-X 293T cells; 1 uM CNL001, second column",71.411%
same,YFP fluorescence quenching using ABT-126,Lenti-X 293T cells; 1 uM abt,−11.77%
same,YFP fluorescence quenching using Varenicline,"Lenti-X 293T cells; 1 uM var, first column",71.449
same,YFP fluorescence quenching using Varenicline,"Lenti-X 293T cells; 1 uM var, second column",69.145
same,"percent quench of YFP fluorescence, 30 nM TC-6683",Lenti-X 293T cells,−22.996%
same,"percent quench of YFP fluorescence, 300 nM TC-6683",Lenti-X 293T cells,−27.055%
same,"percent quench of YFP fluorescence, 3 uM TC-6683",Lenti-X 293T cells,−18.611%
same,"percent quench of YFP fluorescence, 30 uM TC-6683",Lenti-X 293T cells,−13.879%
same,"percent quench of YFP fluorescence, 100 uM TC-6683",Lenti-X 293T cells,−21.521%
same,"percent quench of YFP fluorescence, 10 uM ach",Lenti-X 293T cells; acetylcholine 10 uM,−3.98%
same,"percent quench of YFP fluorescence, 100 uM ach",Lenti-X 293T cells,−10.34%
same,"percent quench of YFP fluorescence, 300 uM ach",Lenti-X 293T cells,−10.25%
same,"percent quench of YFP fluorescence, 500 uM ach",Lenti-X 293T cells,−11.46%
same,"percent quench of YFP fluorescence, 1 mM ach",Lenti-X 293T cells,1.77%
same,"percent quench of YFP fluorescence, 3 mM ach",Lenti-X 293T cells,36.81%
same,"percent quench of YFP fluorescence, 10 mM ach",Lenti-X 293T cells,74.02%
B2,"Rheobase Shift; Rat DRG Neurons, +TC-5619 @ EC90",rat DRG neurons,562 ± 35 pA
same,"Rheobase Shift; Rat DRG Neurons, Baseline",rat DRG neurons,83 ± 7 pA
same,YFP fluorescence quenching using CNL001,"Lenti-X 293T cells; 1 nM CNL001, first column",−12.889%
same,YFP fluorescence quenching using CNL001,"Lenti-X 293T cells; 1 nM CNL001, second column",−13.295%
same,YFP fluorescence quenching using TC-5619/Bradanicline,Lenti-X 293T cells; 1 nM brd,−8.113%
same,YFP fluorescence quenching using TC-5619/Bradanicline,Lenti-X 293T cells; 3 nM brd,−11.136%
same,YFP fluorescence quenching using Varenicline,"Lenti-X 293T cells; 3 nM var, first column",0.468
same,YFP fluorescence quenching using Varenicline,"Lenti-X 293T cells; 3 nM var, second column",−10.015
same,YFP fluorescence quenching using CNL001,"Lenti-X 293T cells; 10 nM CNL001, first column",−10.401%
same,YFP fluorescence quenching using CNL001,"Lenti-X 293T cells; 10 nM CNL001, second column",−7.981%
same,YFP fluorescence quenching using TC-5619/Bradanicline,Lenti-X 293T cells; 10 nM brd,38.755%
same,YFP fluorescence quenching using TC-5619/Bradanicline,Lenti-X 293T cells; 30 nM brd,39.111%
same,YFP fluorescence quenching using Varenicline,"Lenti-X 293T cells; 30 nM var, first column",−15.532
same,YFP fluorescence quenching using Varenicline,"Lenti-X 293T cells; 30 nM var, second column",−14.462
same,YFP fluorescence quenching using CNL001,"Lenti-X 293T cells; 50 nM CNL001, first column",−1.972%
same,YFP fluorescence quenching using CNL001,"Lenti-X 293T cells; 50 nM CNL001, second column",−1.661%
same,YFP fluorescence quenching using ABT-126,Lenti-X 293T cells; 50 nM abt,−21.36%
same,YFP fluorescence quenching using CNL001,"Lenti-X 293T cells; 100 nM CNL001, first column",0.277%
same,YFP fluorescence quenching using CNL001,"Lenti-X 293T cells; 100 nM CNL001, second column",4.325%
same,YFP fluorescence quenching using ABT-126,Lenti-X 293T cells; 100 nM abt,−22.28%
same,YFP fluorescence quenching using TC-5619/Bradanicline,Lenti-X 293T cells; 100 nM brd,61.378%
same,YFP fluorescence quenching using ABT-126,Lenti-X 293T cells; 300 nM abt,−14.63%
same,YFP fluorescence quenching using TC-5619/Bradanicline,Lenti-X 293T cells; 300 nM brd,52.398%
same,YFP fluorescence quenching using Varenicline,"Lenti-X 293T cells; 300 nM var, first column",−17.027
same,YFP fluorescence quenching using Varenicline,"Lenti-X 293T cells; 300 nM var, second column",−15.59
same,YFP fluorescence quenching using Varenicline,"Lenti-X 293T cells; 500 nM var, first column",−13.343
same,YFP fluorescence quenching using Varenicline,"Lenti-X 293T cells; 500 nM var, second column",−10.702
same,YFP fluorescence quenching using CNL001,"Lenti-X 293T cells; 1 uM CNL001, first column",2.88%
same,YFP fluorescence quenching using CNL001,"Lenti-X 293T cells; 1 uM CNL001, second column",3.259%
same,YFP fluorescence quenching using ABT-126,Lenti-X 293T cells; 1 uM abt,−7.34%
same,YFP fluorescence quenching using Varenicline,"Lenti-X 293T cells; 1 uM var, first column",−6.604
same,YFP fluorescence quenching using Varenicline,"Lenti-X 293T cells; 1 uM var, second column",−7.612
same,"percent quench of YFP fluorescence, 30 nM TC-6683",Lenti-X 293T cells,−30.056%
same,"percent quench of YFP fluorescence, 300 nM TC-6683",Lenti-X 293T cells,−30.801%
same,"percent quench of YFP fluorescence, 3 uM TC-6683",Lenti-X 293T cells,−25.558%
same,"percent quench of YFP fluorescence, 30 uM TC-6683",Lenti-X 293T cells,−18.295%
same,"percent quench of YFP fluorescence, 100 uM TC-6683",Lenti-X 293T cells,−17.554%
same,"percent quench of YFP fluorescence, 100 uM ach",Lenti-X 293T cells,−15.63%
same,"percent quench of YFP fluorescence, 300 uM ach",Lenti-X 293T cells,−12.05%
same,"percent quench of YFP fluorescence, 500 uM ach",Lenti-X 293T cells,−12.87%
same,"percent quench of YFP fluorescence, 1 mM ach",Lenti-X 293T cells,−11.55%
same,"percent quench of YFP fluorescence, 3 mM ach",Lenti-X 293T cells,12.68%
same,"percent quench of YFP fluorescence, 10 mM ach",Lenti-X 293T cells,37.58%
